In publication PMC5025769, “A highly efficient sorbitol dehydrogenase from Gluconobacter oxydans G624 and improvement of its stability through immobilization” (Scientific Reports, 2016):

Tests used:
[1] = molecular target: T1, PfMDH (mannitol dehydrogenase) (Pseudomonas fluorescens, UniProt O08355, K295Q); test: isothermal titration calorimetry, […] °C; assay type: binding
T1 construct: gene mtlD

[2] = molecular target: GoSLDH (sorbitol dehydrogenase) (Gluconobacter oxydans, UniProt Q9KWR5, K294Q); test: isothermal titration calorimetry, […] °C; assay type: binding
[3] = molecular target: T2, GoSLDH (sorbitol dehydrogenase) (Gluconobacter oxydans, UniProt Q9KWR5); test: substrate specificity assay at […]; assay type: biochemical
T2 construct: purified 6x His-tagged recombinant GoSLDH
T2 sequence (Q9KWR5 1-485): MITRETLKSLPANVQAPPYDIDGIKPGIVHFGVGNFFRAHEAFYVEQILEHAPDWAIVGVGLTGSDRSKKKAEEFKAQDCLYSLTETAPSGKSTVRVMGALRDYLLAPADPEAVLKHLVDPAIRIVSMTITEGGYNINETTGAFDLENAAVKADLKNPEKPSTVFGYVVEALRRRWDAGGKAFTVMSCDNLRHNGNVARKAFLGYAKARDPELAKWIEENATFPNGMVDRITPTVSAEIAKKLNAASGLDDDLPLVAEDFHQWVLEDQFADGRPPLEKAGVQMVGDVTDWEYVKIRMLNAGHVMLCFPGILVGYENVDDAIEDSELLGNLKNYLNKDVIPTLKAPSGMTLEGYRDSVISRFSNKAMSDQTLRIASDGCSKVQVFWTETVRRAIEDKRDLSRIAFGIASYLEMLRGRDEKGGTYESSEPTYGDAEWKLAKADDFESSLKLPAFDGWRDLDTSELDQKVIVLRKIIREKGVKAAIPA

purified protein [4] = substrate: OC[C@@H](O)[C@@H](O)[C@H](O)[C@@H](O)CO; test: purified protein; assay type: biochemical, Gluconobacter oxydans; details: NADP^+
purified protein [5] = substrate: NC(=O)c1ccc[n+]([C@@H]2O[C@H](COP(=O)(O)OP(=O)(O)OC[C@H]3O[C@@H](n4cnc5c(N)ncnc54)[C@H](OP(=O)(O)O)[C@@H]3O)[C@@H](O)[C@H]2O)c1; test: purified protein; details: varied: cofactor
[6] = molecular target: the molecule itself; test: SEC; Bio-Sil SEC-250 column (300 x 7.8 mm) on HPLC; mobile phase pH 6.8, 50 mM Na2HPO4, 50 mM NaH2PO4, 50 mM NaCl, 10 mM NaN3; 1.0 mL/min; quaternary structure from comparison of molecular weights by HPLC and SDS-PAGE

T1 sequence (O08355 entry or part of it K295Q): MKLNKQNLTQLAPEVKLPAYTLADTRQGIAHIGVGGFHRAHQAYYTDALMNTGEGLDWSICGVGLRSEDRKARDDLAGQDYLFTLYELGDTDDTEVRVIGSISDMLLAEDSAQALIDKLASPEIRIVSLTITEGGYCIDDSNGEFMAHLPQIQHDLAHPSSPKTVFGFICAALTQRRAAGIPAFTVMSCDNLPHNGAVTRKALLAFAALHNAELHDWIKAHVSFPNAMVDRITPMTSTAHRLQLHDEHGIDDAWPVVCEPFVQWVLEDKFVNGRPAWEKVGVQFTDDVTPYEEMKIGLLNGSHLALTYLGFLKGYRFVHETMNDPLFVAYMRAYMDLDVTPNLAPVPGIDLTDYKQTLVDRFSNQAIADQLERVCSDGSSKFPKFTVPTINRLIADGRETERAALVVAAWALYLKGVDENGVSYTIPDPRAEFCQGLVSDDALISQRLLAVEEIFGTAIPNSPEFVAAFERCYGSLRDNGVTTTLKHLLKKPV

OC[C@@H](O)[C@@H](O)[C@H](O)[C@@H](O)CO [D-sorbitol]
Kd [1]: 278 µM
Kd [2]: 96 µM

OC[C@@H](O)[C@@H](O)[C@H](O)[C@H](O)CO [mannitol]
substrate specificity assay at 200 mM [3]: GoSLDH is highly specific towards D-sorbitol, mannitol, and D-arabinitol (Table S2)

B1: sorbitol dehydrogenase (GoSLDH) from Gluconobacter oxydans G624 (enzyme, UniProt Q9KWR5 1-485, looked up)
chain: MITRETLKSLPANVQAPPYDIDGIKPGIVHFGVGNFFRAHEAFYVEQILEHAPDWAIVGVGLTGSDRSKKKAEEFKAQDCLYSLTETAPSGKSTVRVMGALRDYLLAPADPEAVLKHLVDPAIRIVSMTITEGGYNINETTGAFDLENAAVKADLKNPEKPSTVFGYVVEALRRRWDAGGKAFTVMSCDNLRHNGNVARKAFLGYAKARDPELAKWIEENATFPNGMVDRITPTVSAEIAKKLNAASGLDDDLPLVAEDFHQWVLEDQFADGRPPLEKAGVQMVGDVTDWEYVKIRMLNAGHVMLCFPGILVGYENVDDAIEDSELLGNLKNYLNKDVIPTLKAPSGMTLEGYRDSVISRFSNKAMSDQTLRIASDGCSKVQVFWTETVRRAIEDKRDLSRIAFGIASYLEMLRGRDEKGGTYESSEPTYGDAEWKLAKADDFESSLKLPAFDGWRDLDTSELDQKVIVLRKIIREKGVKAAIPA
notes: sorbitol dehydrogenase (SLDH) of Gluconobacter oxydans G624; complete 1455-bp codon-optimized gene; molecular mass 53.64 kDa by SDS-PAGE; The abstract speaks of the complete 1455-bp gene, the methods of 1.458 kb; also called recombinant GoSLDH; polyol-specific long-chain dehydrogenase from G. oxydans G624; source: E. coli BL21 (DE3)-CodonPlus RIL, pET-28(a), purified (Ni-NTA Superflow column)
Km (purified protein [4]): 38.9 mM
kcat (purified protein [4]): 3820 s⁻¹
kcat/Km (purified protein [4]): 98100 M⁻¹ s⁻¹
Km (purified protein [5]): 0.0882 mM
stoichiometry N [6]: 2
